Legend:
empty GST proteins = target: T1, empty GST proteins (UniProt P08515 1-218 = GST); assay: GST pull-down with purified proteins
T1 construct: Negative control of the pull-down

p53Ψ [1] = target: T2, p53Ψ (Homo sapiens (Human), UniProt P04637 1-225); assay: co-immunoprecipitation from submitochondrial fractions, immunoblot
T2 construct: Whole p53Ψ isoform expressed ectopically in A549 cells; It was tested in submitochondrial fractions by co-immunoprecipitation; also called p53-psi; p53Ψ isoform

p53Ψ [2] = target: T2, p53Ψ; assay: co-immunoprecipitation from submitochondrial fractions with an anti-p53 N-terminal antibody, immunoblot

T1 sequence (P08515 whole entry): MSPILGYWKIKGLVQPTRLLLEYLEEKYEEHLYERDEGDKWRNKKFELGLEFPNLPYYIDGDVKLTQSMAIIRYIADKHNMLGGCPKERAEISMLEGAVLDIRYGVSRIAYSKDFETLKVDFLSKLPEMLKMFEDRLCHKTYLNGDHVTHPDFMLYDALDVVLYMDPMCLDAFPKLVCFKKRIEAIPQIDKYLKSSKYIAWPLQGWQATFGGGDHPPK

B1: purified p53Ψ (aa 102-243) (other)
chain: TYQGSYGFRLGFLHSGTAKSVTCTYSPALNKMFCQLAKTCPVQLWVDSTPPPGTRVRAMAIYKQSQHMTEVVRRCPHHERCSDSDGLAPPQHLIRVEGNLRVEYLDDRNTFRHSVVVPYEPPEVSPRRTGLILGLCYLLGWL
notes: Purified recombinant fragment used in the GST pull-down; also called recombinant p53Ψ
- binding result (empty GST proteins): no binding

B2: BAK (other, UniProt Q16611 2-211, looked up)
chain: ASGQGPGPPRQECGEPALPSASEEQVAQDTEEVFRSYVFYRHQQEQEAEGVAAPADPEMVTLPLQPSSTMGQVGRQLAIIGDDINRRYDSEFQTMLQHLQPTAENAYEYFTKIATSLFESGINWGRVVALLGFGYRLALHVYQHGLTGFLGQVTRFVVDFMLHHCIARWIAQRGGWVAALNLGNGPILNVLVVLGVVLLGQFVVRRFFKS
- binding result (p53Ψ [1]): no binding

B3: MnSOD (enzyme, UniProt P04179 25-222, looked up)
chain: KHSLPDLPYDYGALEPHINAQIMQLHHSKHHAAYVNNLNVTEEKYQEALAKGDVTAQIALQPALKFNGGGHINHSIFWTNLSPNGGGEPKGELLEAIKRDFGSFDKFKEKLTAASVGVQGSGWGWLGFNKERGHLQIAACPNQDPLQGTTGLIPLLGIDVWEHAYYLQYKNVRPDYLKAIWNVINWENVTERYMACKK
notes: Endogenous protein of A549 cells, a human cell line; also called SOD2
- binding result (p53Ψ [2]): no binding

Reference: patent publication US20170211072A1 (COLD SPRING HARBOR LABORATORY, published 2017)
